# Assay results taken from patent US20220177587A1, “METHODS AND USES OF VARIANT CD80 FUSION PROTEINS AND RELATED CONSTRUCTS” (Alpine Immune Sciences, Inc., priority 2018, published 2022).
# Where two headings read alike, the source gives them in different places.
# Columns and labels:
# CD28 (human) [1] = target: CD28 (human) (UniProt P10747)
# PD-L1 (human) [2] = target: PD-L1 (human) (UniProt Q9NZQ7)
# CD28 (human) [3] = target: CD28 (human) (UniProt P10747); remark: listed apart in the source
# PD-L1 (human) [4] = target: PD-L1 (human) (UniProt Q9NZQ7); remark: listed apart in the source
# CD28 (human) [5] = target: CD28 (human) (UniProt P10747); remark: listed apart in the source
# CD28 (human) [6] = target: CD28 (human) (UniProt P10747); assay: flow cytometry, HEK293 cells transfected with full-length human CD28, PE anti-human Fc
# PD-L1 (human) [7] = target: PD-L1 (human) (UniProt Q9NZQ7); assay: flow cytometry, CHO cells expressing huPD-L1
# human CTLA-4 (human) [8] = target: human CTLA-4 (human) (UniProt P16410); assay: flow cytometry, CHO cells expressing huCTLA-4
# CD28 (human) [9] = target: CD28 (human) (UniProt P10747); assay: flow cytometry, Jurkat/IL2 reporter cells (CD28)
# PD-L1 (human) [10] = target: PD-L1 (human) (UniProt Q9NZQ7); assay: flow cytometry, CHO/huPD-L1 cells; vs WT CD80 ECD-Fc (Abcam)
# human CTLA-4 (human) [11] = target: human CTLA-4 (human) (UniProt P16410); assay: flow cytometry, CHO/huCTLA-4 cells; vs WT CD80 ECD-Fc (Abcam)
# PD-L1 (human) [12] = target: PD-L1 (human) (UniProt Q9NZQ7); assay: flow cytometry, HEK293 cells transfected with human PD-L1
# PD-L1 (human) [13] = target: PD-L1 (human) (UniProt Q9NZQ7); assay: flow cytometry, transfected Expi293F cells
# human CTLA-4 (human) [14] = target: human CTLA-4 (human) (UniProt P16410); assay: flow cytometry, transfected Expi293F cells
# human CTLA-4 (human) [15] = target: human CTLA-4 (human) (UniProt P16410); assay: flow cytometry, CHO cells expressing huCTLA4
# PD-L1 (human) [16] = target: PD-L1 (human) (UniProt Q9NZQ7); assay: flow cytometry, CHO cells expressing huPD-L1; remark: listed apart in the source
# CD28 (human) [17] = target: CD28 (human) (UniProt P10747); assay: flow cytometry, Jurkat/IL2 reporter cells (CD28); remark: listed apart in the source
# human CTLA-4 (human) [18] = target: human CTLA-4 (human) (UniProt P16410); assay: flow cytometry, CHO cells expressing huCTLA4, vs WT CD80 ECD-Fc (R&D)
# CD28 (human) [19] = target: CD28 (human) (UniProt P10747); assay: flow cytometry, Jurkat/IL2 reporter cells (CD28), vs WT CD80 ECD-Fc (R&D)
# CD28 (human) [20] = target: CD28 (human) (UniProt P10747); remark: listed apart in the source
# PD-L1 (human) [21] = target: PD-L1 (human) (UniProt Q9NZQ7); remark: listed apart in the source
# CD28 (human) [22] = target: CD28 (human) (UniProt P10747); assay: flow cytometry, Jurkat cells (CD28)
# human CTLA-4 (human) [23] = target: human CTLA-4 (human) (UniProt P16410); assay: flow cytometry, CHO cells stably expressing CTLA4
# PD-L1 (human) [24] = target: PD-L1 (human) (UniProt Q9NZQ7); assay: flow cytometry, CHO cells stably expressing PD-L1
# human CTLA-4 (human) [25] = target: human CTLA-4 (human) (UniProt P16410); assay: flow cytometry, CHO/CTLA4 cells; MFI over CD80 WT IgV-Fc
# PD-L1 (human) [26] = target: PD-L1 (human) (UniProt Q9NZQ7); assay: flow cytometry, CHO/PD-L1 cells; MFI over CD80 WT IgV-Fc
# CD28 (human) [27] = target: CD28 (human) (UniProt P10747); assay: flow cytometry, Jurkat cells (CD28); MFI over CD80 WT IgV-Fc
# Sequence of PD-L1 (human) (Q9NZQ7 19-290): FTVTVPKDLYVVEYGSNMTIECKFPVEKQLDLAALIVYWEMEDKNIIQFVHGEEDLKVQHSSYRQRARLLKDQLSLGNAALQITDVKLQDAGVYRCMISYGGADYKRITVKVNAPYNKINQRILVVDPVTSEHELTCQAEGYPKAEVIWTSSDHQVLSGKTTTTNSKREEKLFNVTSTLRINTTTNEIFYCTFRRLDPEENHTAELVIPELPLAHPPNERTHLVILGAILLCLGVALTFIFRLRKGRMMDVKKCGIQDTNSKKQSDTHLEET
# Sequence of human CTLA-4 (human) (P16410 36-223): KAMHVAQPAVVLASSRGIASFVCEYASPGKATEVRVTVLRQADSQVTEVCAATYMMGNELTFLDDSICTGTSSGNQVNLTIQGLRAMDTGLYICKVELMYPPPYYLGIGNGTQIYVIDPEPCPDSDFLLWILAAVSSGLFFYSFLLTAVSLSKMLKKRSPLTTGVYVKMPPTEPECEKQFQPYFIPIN
# Sequence of WT CD80 ECD-Fc (inert) (Fc fusion) (chain): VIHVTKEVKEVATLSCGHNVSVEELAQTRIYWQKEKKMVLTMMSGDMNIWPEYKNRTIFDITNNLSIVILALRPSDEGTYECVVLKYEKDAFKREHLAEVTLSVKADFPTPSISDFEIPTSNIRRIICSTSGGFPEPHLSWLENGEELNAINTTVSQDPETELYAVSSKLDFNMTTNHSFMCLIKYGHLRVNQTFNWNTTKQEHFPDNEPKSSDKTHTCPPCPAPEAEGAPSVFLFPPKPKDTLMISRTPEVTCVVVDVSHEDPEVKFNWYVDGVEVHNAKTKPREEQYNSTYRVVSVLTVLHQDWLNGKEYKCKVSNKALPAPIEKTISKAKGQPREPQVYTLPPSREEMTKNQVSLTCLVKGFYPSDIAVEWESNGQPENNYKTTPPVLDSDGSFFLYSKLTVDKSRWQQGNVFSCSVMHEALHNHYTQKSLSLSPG
substance,measurement,setting,value
"CD80 E35D/M47V/N48K/V68M/K89N IgV-Fc, delta linker (Fc fusion)","IL2-luciferase reporter, fold increase in RLU over WT CD80-IgV-Fc at 5.0 nM",CD28 (human) [1],2.63 fold
same,"IL2-luciferase reporter, fold increase in RLU over WT CD80-IgV-Fc at 5.0 nM",PD-L1 (human) [2],2.63 fold
CD80 E35D/M47V/L85M/R94Q IgV-Fc (Fc fusion),"IL2-luciferase reporter (RLU), fold increase over WT CD80-IgV-Fc at 5.0 nM",CD28 (human) [3],1.2 fold
same,"IL2-luciferase reporter (RLU), fold increase over WT CD80-IgV-Fc at 5.0 nM",PD-L1 (human) [4],1.2 fold
CD80 V22A/E35D/M47L/A71G IgV-Fc (Fc fusion),"IL2-luciferase reporter (RLU), fold increase over WT CD80-IgV-Fc at 5.0 nM",CD28 (human) [3],6.5 fold
same,"IL2-luciferase reporter (RLU), fold increase over WT CD80-IgV-Fc at 5.0 nM",PD-L1 (human) [4],6.5 fold
WT CD80 ECD-Fc (inert) (Fc fusion),"Jurkat/IL2 reporter RLU at 50 nM, CHO/OKT3 aAPC without PD-L1",CD28 (human) [5],420 RLU
same,MFI at 66.6 nM,CD28 (human) [6],3070 MFI
variant CD80 IgV-Fc E35D/M47V/N48K/K89N (Fc fusion),MFI at 33.3 nM,PD-L1 (human) [7],6670 MFI
same,MFI at 33.3 nM,human CTLA-4 (human) [8],43800 MFI
same,MFI at 33.3 nM,CD28 (human) [9],701 MFI
same,Fold change to WT CD80,PD-L1 (human) [10],52.1 fold
same,Fold change to WT CD80,human CTLA-4 (human) [11],1.1 fold
variant CD80 IgV-Fc S44P/A71D (Fc fusion),MFI at 22.2 nM,PD-L1 (human) [12],6310
CD80 R29D/Y31L/Q33H/K36G/M38I/T41A/M43R/M47T/L85R/K89N/A91T/F92P/K93V/R94L/I118V/T120S/I127T/T130A/K169E/H188D ECD-Fc (Fc fusion),MFI,PD-L1 (human) [13],110000
same,MFI,human CTLA-4 (human) [14],2200
variant CD80 IgV-Fc E35D/M42V/M47V/E52D/L85Q (Fc fusion),MFI at 33.3 nM,human CTLA-4 (human) [15],226000 MFI
same,MFI at 33.3 nM,PD-L1 (human) [16],11900 MFI
same,MFI at 33.3 nM,CD28 (human) [17],1290 MFI
same,Fold change to WT CD80,human CTLA-4 (human) [18],1.44 fold
same,Fold change to WT CD80,CD28 (human) [19],0.07 fold
variant CD80 IgV-Fc (inert) H18Y/E35D/M47V/V68M/A71G/D90G (Fc fusion),"IL2-luciferase reporter, fold increase in RLU over WT CD80-IgV-Fc at 5.0 nM",CD28 (human) [20],4.8 fold
same,"IL2-luciferase reporter, fold increase in RLU over WT CD80-IgV-Fc at 5.0 nM",PD-L1 (human) [21],4.8 fold
same,MFI at 33.3 nM,CD28 (human) [22],6790 MFI
same,MFI at 33.3 nM,human CTLA-4 (human) [23],17200 MFI
same,MFI at 33.3 nM,PD-L1 (human) [24],52200 MFI
same,Fold change to WT CD80,human CTLA-4 (human) [25],12.4 fold
same,Fold change to WT CD80,PD-L1 (human) [26],316 fold
same,Fold change to WT CD80,CD28 (human) [27],66.6 fold
